Data published in a protein production outcome set (Wang et al. 2014).

Assay: label from the status in PepcDB records

Sequence: MAQRVANIMKPFATGLVVGKFAPLHCGHEKLINTALAQCEELFIISYSVPEMPDCEPEKRLTWLQVRFPQATILVLTPELVARYNLPAIPHNDADADIHRHYVATLCLQILRCRPHAVFTAEDYGDGFANVLARRFAQPVEHVRMARPVGDEAPSGTLIRSDVHRYRYMLANDVYYSFVRRICLLGGESTGKSTLSKALADGLDTVYVAEFGRDYWEEKNGILTADDLLHIACEQVRREQQAEANHYLICDTSPLTTLFYALDQYGHAPQELHQLAEREYSLVVLCGAEFPFVQDGTRQGEVFRARQQVWYEQELSRRNIPYLSVSGPLQERVEQILRQLPD
- protein production: failed

Sequence: MAQSETVERILDAAEQLFAEKGFAETSLRLITSKAGVNLAAVNYHFGSKKALIQAVFSRFLGPFCASLEKELDRRQAKPEAQHATLEDLLHLLVSQAMAVKPRSGNDLSIFMRLLGLAFSQSQGHLRKYLEEVYGKVFRRYMLLVNEAAPKLPPIELFWRVHFMLGAAAFSMSGIKALRAMAETDFGVNTSTEQVMHLMVPFFAAGMRAESGIDDPLLAGAQLRPRNKTPAKA
- protein production: not failed

Sequence: MAQSINITELNLPQLEMLKNQLDQEVEFLSTSIAQLKVVQTKYVEAKDCLNVLNKSNEGKELLVPLTSSMYVPGKLHDVEHVLIDVGTGYYVEKTAEDAKDFFKRKIDFLTKQMEKIQPALQEKHAMKQAVMEMMSQKIQQLTALGAAQATVKA
- protein production: failed

Sequence: MAQTKRFVIAGGGRVGKQTAENLVDQGHDVLLIESDEERVEALSDAYIGPVIHGDATRPSILQQADLAEADAIAALTDEPGTNLAICMEAQQYAPSIRTIARAETEADHEYDEVVDATLLPEYLGGDHAADILTGEDIRTLVYPTADLDIIKVTVAPSAPVAGRRLDEIALPSGSLLISTADRTELAGADTVLKAEEQYILAVETDVVDEVLKLMRG
- protein production: failed

Sequence: MARAPARARGSRGLNCLAGSQQTRIPAQETDDLFTTCQFGETEEDTAVEEAETIDCLSIPKQKLAQSQKKINQFINEKMSTKANKELIRCFILSQIVFGKEHWKCAQALANLAYGYLTLRGLPAQAKKHAESARNTLLTWKRNTTSDKEKKEILETLVILYYTLGIAWLLQNHGKQAYIHLQKAQRNMKELKELNNGSIYEIQVSDKDLTIALGRASLAMHRMHLALAYFEKAICGVILAKGHDTSDLISLYEEIAQIEQLRKNHEQAIQYLQQAYSISVSSFTEVSPQTAEASALLAKAYAMSGESQHRDAVEIYFIRSISTYQTLGSEDYETLTTIEDFCTWLIQNGEKQEAYRLLKSTLNSCTFGDCGKKVAETFYNMGSICFAKGELREAIALLRKCLMIQSLIYGSEHTKSIETKSLLSLLQRPISRFPRTAEQSHGVVARAQMSKISAGMALSASASHWNNQSQMSWDSACIPMGASVLYDTSFRNAVKYSLDCHGQQPEFLSCGGSAS
- protein production: failed

Sequence: MARDALTDALTVGELRRRVHALVLGKRQRVYSGAMFLVEVVHHPELSAMLGLEDNKLLLAMIAQRLQMQSDYFQVARHSSDSFMVWAPDLDPRSARDVAPEVLDALSQPYELRGQPLIVGFRLSGALYAQHGACFDELERSLHIAMLHLDESAGAAWNMFEPSMLEHQRHYQGLEHHHHHH
- protein production: failed

Sequence: MARESRTNPRAAGRNALGARRFWFVSLAGIVLASGYDILQALQGSAAAAQRLVVPVLLLLWLYRGSDWARWILMVMLLGFGVLNMYLGTGMLRYGVQNWLHIYVFSAFMVATGLYLALAGKDFARYRSHVAARRARRAASQG
- protein production: failed

Sequence: MARFDRYLLSQLVALFGFFSLVLVLVYWINRAVGLFDDLISDGQSALVFLEFSLLALPNVIRLVLPLSAFAATIYVVNRLSQESELVVMQATGFSAFRLARPVIWFGLIVALMMIVLMNLLVPASRATLSARSAEISQNATARFLRDGEFLHPADGVTLYIREVTETGELRDLLLVDDRDPARSTAYTARRALLVRTDTTPKLLMIDGSAQTLTREGRRLELTRFDDVTYDLGAFMTGSGPKRRVLEELPTMTLLAPTAEVLEETRSTRAAALYEGHSRIGQPFLGFASSLIGFAALLLGSFSRFGLWWQILFAVLLLIVVQTINVAASGVGVTDEQLWPLAYAAPVTGFAIGILLLWIGQRPRRLRRALNGIFAS
- protein production: failed

Sequence: MARHRDRAAGMNMAMMRLRREDPRVVGSFRLHRRLGAGGMGVVYLGSDKKGQRVALKVIRPDLAEDQEFRSRFAREVSAARRIRGGCTARLVAADLEADRPWFATQYVPGPSLHDKVADGGPLGAADVAAVGAALSEGLVAVHEAGVVHRDLKPSNILLSPKGPRIIDFGIAWATGASTLTHVGTAVGSPGFLAPEQVRGAAVTPATDVFSLGATLAYASMGDSPFGHGSSEVMLYRVVHEEAQLHGVPDALAPLVRACLAKDPEERPSTLQLSLRLKEIAAREAQGMADVRPPAPRSGEADVPTGRLADTYPERAQRRPQGRPGPQGTPAPRGTSASRGSAPRGSVPSRGGAPSRGGTPSRGGTPSRGGTSSRGGGTGARSGSRPTPTRDTTGRNSSRNDGGRPAPRGGSGRTAPRTTGTGWRRPANPRLLRQRLFVFVVVTLLVALGIAAAQGCQGPARGLGDERGGGVRATQRDQVDPPGGLPEPRTPGR
- protein production: failed

Sequence: MARKCEITGKKTMFGNNVPRKGLAKKKGGAGQHIGVKTKRTFKVNLINKKFFIPNLGRSVSIKVSANALRSISKIGLDAFLKKNCKKIENFLLEHHHHHH
- protein production: failed

Sequence: MARKVILFIAMSIDNYIADDQGAVDWLEKNVHGTESDDSYEKMYSKIDTVIMGRTTYEQVTQKLSPEKYVYADRQTYIVTSHLGEDTDKIKYWKQSPVELVKRIQKEKGKDVWIVGGAKLIDPLVQANLIDTYILTTVPIFLGSGIRLFDRLEEQVPVRLIDVYQKNELVYSIYQRG
- protein production: not failed

Sequence: MARLGKKSRNGAFWAKALERAHLGVWDWDLRSGDCFYSATWARMLGYEEDELANTSDLWLQLTHPDDRERALASGDRHIAGLTDAIETELRLKHKLGHWVWVLDRGGIVESGADGRPLRLMGVQTDISKQKAAEAALEQVTMRFRLALAASGTGIWHYDIATHKSYWDARTREMFGVVADADEVAADLWHSFLHPDDKEATERAHWPSPGSNGVTASQYRIVKRDGEIRHIESLVRYVAAAGAAGQILGTVRDITEDKLREQELAFAARHDALTGLWNRAAFDRLLADHIAKGVPLAVFYVDLDYFKALNDFAGHAAGDLALKSVAAGIGRCLPPSAHAARLGGDEFALLVPHCDAAQAERLAAAILAAVRSADLGLAATARRLAASIGIAIVNDRATTVADALACADDACYAAKAAGRDRFAVFSAEAATGGLNAARLAADTVDAMEDGRLKLFGQEIHRLGRPWQENRHVEVLARLVGRGGKLIPPSEFIPAAERFGIAARLDRWIIRTALSRHGAAMKSGAITLGFNLSAQTLSDPGLWDFVDSIIEETGAPHSGIGFEITETAAVTNFDAAETFVRKARERRCKVSLDDFGAGMSSFEYLRRFPVDAIKIDGSFIEHMAESRFDREIVSAISGIARSVGCTVVAEKIEQAETLGILQTMGVDFGQGFLLHRPEPLEQIVARAAGPARAAPARKAS
- protein production: failed

Sequence: MARPKSKTKKILFAVEIIVLLLFIGGLYVYGQLNSKLDKINQPVLDDSKIKVNQEVQDSIDSQESTLTGYTTYALFGIDHRDKNTALGGENSDTIIIASVNNDTKDVKLVSVYRDTLLNLGNDTYSKANAAYAYGEAEQAITMLNTNLDLNISEYATVNFNALTTIIDDLGGLDMDMSYAEIVHMNNYCVETSEETGKDYTPIELPDRPDDIEAVQYHYHLNGVQATSYCRIRYTASLDMGRTERQRRVIQMIVSKAKSAGLGKIFKIMDDVFPMVTTSMTKDEILQLLPTLIGYSVDDTTGFPTSYKFSNVKGSIIVPTTLETNVIELHKFLYGDEAYTPSATVKANSEKILEIVGGESSLDDKQATVEENTTNDTVIFEKNGSGWSDTSSDYGSDSDSSGGGDYSGDETDNSGGSSSGGGDYSNDGSDNSGGDSSGGEDYEGPTTPEPDYGGDDNGGGDTGGDESGGGDTGGDESGGGDIVDEGSGDDSGAAAEATGTPDAA
- protein production: failed

Sequence: MARPRKPTNVLELTGAFKKDPQRRREDAEPVGELTAPPAHINGAVLHAWKEIAKYAPRDVLTNSDRLSLELAANLLAQFRNDPLDFPAAKLVRLEAMLGKFGMTPADRSKVGGGKKDAPKGNAFAEL
- protein production: failed

Sequence: MARRDISGAVDFAYLEGFAAGDFAVVDEVLALFREQAALWAPMLDPTHPGWKDAVHTVKGAARGVGAFNLGEVCERCEAGQESLEGVRTALDAALLDIAAYAHEQALRSLKG
- protein production: not failed

Sequence: MARRWTPQRFVMLRRVRVVICVTTVTLASVLAFGVGARKTVALTVNGETTTVTTYAMSVDRLLQEQQVKVKTHDLVESTSSGTLQNHSVVTVRSAYQTTVTIDGQEVPFWTVATSADQLLGFFEANEAEASKITVNIDNVYNKLTGGLVINQNGPVTVIADGKSSVSPNGKLPAASILDSKGIILNKEDRVSVEKDNGETILRVQRVTHDEQTRTKTVPHGTQTIIDASLQPGEAVVRQEGEDGEIQQTYDVTYVDGVEESEKLINEVTTKIAIDQIIAVGPEKTESSDADNADNGQADSGSNDSDSSKSDKKDESDKKDSDSTDKKNDSSEKNDSTSTPTTEPTQTPTPTPTPTQQQQQTQTTTNPSDGCRLYHPSAAQAQTYAAGAAAQYGWTGQHWTNLVKLWNRESSWLWYSENASSGAYGIPQSLPGSKMASFGANWRDDAAVQIDWGLNYIAQRYGNPTKAREHSEQYGWY
- protein production: failed

Sequence: MARSIDYGNLMHRAMRGLIQSVLEDVAEHGLPGAHHFFITFDTTHPDVAMADWLRARYPQEMTVVIQHWYENLSADDHGFSVTLNFGNQPEPLVIPFDAVRTFVDPSVEFGLRFETHEEDEEEETGGDEDPDGDDEPPRHDAQVVSLDKFRKLEHHHHHH
- protein production: failed

Sequence: MARSSSFLDNLLTSPSTERYRVGLSVLFLLCVWLVVGSFSQGLPNAMLLMAAAVIGGYMAINIGANDVANNVGPAVGSGALSLGAAVLLAAVFEAAGALIAGGDVVSTIKGGIIDPTSLEDPRAFVWLMTAALLAGALWLNLATWMGAPVSTTHSIVGGVLGAGIAAGGWAIADWAVMGKIAASWVISPVLGGALAALFLFAIKKTVLYRQNLVSSARTFVPWLVAIMAWAFATYLMIKGVKKIVKVDMVEASVIGLIVAGVVFFVMRTLVGRKASTMENSAQGVNTLFTWPLIFAAALLSFAHGANDVANAIGPLAAINDAIQAGGGVVTSAKIPLWVMLVGALGLAVGLMLFGPRLIKTVGSEITELDKTRAFCIALSAALTVILASQLGLPVSSTHIAIGGVFGVGFLREYLKSNYATQLHKIIEQHDPTDQERLKPFLDDFRNASVEEMEKLLKQAKKKKQQVPLSKSERKRLKKIYREEMVKRSHLVKIAAAWIITVPASAIMAAFLFFTLRGLMV
- protein production: failed

Sequence: MASDAPTGHVSDLDWLMSGLVQRVPHTTSAVLLSCDGLVKSVHGLDPDSADHMAALASGLYSLGRSAGIRFGDGGDVRQVVVELDSTLLFVSTAGSGTCLAVLAGREADAAVLGYEMAMLVKSVRPYLMTAPRQAAAQPPAMRP
- protein production: failed

Sequence: MASEHHEALNLYAVRVARGEGVKQDFARAASLFRRADRCGFNCEPVYDDMVNDFRDKAFGMELVSSKRAFLKALRPETAEARCTVGEAFIGQGDADSLRTGRELLTSAATLGSGKAMYLLGVLCRDGKGVAANAERAFMWFSLAASCGFAKAESERVNAEGKLDDAGRTRAMQLAARWRRQYLAPVCLEHHHHHH
- protein production: failed

Sequence: MASEREQISRKVALIALIANLILMAGKVFFGLVGDSEAVFADGIHSAADVVASIAVLAVIGISNKPPDQDHPFGHGKAEVISEAIVGIILVIVSVYILIEAILSFVKGPSVPQYSALFAALISYVAKEILYRYSIKQGKKWNSKAIIAIAYDHKGDIVASLAAFIGVLLAIIGNSRGWSYLLYADAIASAIVAYLIFKISMELIRPSVGVLMEKSVDPELIEEYKAVIFQCDQVKRIDRIRAREHGHYKLLDVRLSLDHDLTIKQGHDIAREIRNEIKRQFSDVEEVLIHVNPYFEE
- protein production: failed
